Consider five molecules from patent publication US20090324600A1 (PIERRE FABRE MEDICAMENT, published 2009).

Test [1] concerns the target integrin α6β4 (UniProt P23229). The experiment in a line: cell-based or functional assay.
Test [2] addresses integrin α3β1 (UniProt P26006). The experiment in a line: cell-based or functional assay.
Test [3] concerns the target T1, murine CD151 (murine, UniProt O35566 1-253).
T1 construct: Endogenous protein in mouse tissue lysates on a Western blot; also called murine receptor
T1 sequence (looked up): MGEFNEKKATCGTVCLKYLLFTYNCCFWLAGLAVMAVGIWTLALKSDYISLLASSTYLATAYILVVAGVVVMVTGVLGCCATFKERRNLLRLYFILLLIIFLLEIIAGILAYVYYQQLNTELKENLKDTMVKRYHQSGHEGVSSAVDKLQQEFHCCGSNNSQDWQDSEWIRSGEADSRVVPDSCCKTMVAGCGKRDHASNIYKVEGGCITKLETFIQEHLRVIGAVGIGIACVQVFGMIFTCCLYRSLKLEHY
The experiment in a line: Western blot of murine lung, pancreas and colon tissue lysates (10 µg total protein), non-reductive conditions. On the procedure:
The specificity of the TS151 and TS151r antibodies was evaluated by Western blot. Lysates of human and murine lung, pancreas and colon tissues (Biochain, 10 μg of total proteins) and also increasing amounts of HT-29 cell lysate (10, 20 and 50 μg of total proteins) were placed on a 4-12% acrylamide gel (BioRad). After electrophoresis (non-reductive conditions), the proteins were transferred onto nitrocellulose membranes. The transfer membranes were then incubated with the purified TS151 and TS151r antibodies and then with a rabbit anti-mouse Ig polyclonal antibody coupled to peroxidase (GE Healthcare) before ECL-type visualisation.
On the technique in general: A western blot detects proteins with antibodies after separation by electrophoresis.

Sequence of integrin α6β4 (P23229 24-1130 limits assumed, chain 1 of 2): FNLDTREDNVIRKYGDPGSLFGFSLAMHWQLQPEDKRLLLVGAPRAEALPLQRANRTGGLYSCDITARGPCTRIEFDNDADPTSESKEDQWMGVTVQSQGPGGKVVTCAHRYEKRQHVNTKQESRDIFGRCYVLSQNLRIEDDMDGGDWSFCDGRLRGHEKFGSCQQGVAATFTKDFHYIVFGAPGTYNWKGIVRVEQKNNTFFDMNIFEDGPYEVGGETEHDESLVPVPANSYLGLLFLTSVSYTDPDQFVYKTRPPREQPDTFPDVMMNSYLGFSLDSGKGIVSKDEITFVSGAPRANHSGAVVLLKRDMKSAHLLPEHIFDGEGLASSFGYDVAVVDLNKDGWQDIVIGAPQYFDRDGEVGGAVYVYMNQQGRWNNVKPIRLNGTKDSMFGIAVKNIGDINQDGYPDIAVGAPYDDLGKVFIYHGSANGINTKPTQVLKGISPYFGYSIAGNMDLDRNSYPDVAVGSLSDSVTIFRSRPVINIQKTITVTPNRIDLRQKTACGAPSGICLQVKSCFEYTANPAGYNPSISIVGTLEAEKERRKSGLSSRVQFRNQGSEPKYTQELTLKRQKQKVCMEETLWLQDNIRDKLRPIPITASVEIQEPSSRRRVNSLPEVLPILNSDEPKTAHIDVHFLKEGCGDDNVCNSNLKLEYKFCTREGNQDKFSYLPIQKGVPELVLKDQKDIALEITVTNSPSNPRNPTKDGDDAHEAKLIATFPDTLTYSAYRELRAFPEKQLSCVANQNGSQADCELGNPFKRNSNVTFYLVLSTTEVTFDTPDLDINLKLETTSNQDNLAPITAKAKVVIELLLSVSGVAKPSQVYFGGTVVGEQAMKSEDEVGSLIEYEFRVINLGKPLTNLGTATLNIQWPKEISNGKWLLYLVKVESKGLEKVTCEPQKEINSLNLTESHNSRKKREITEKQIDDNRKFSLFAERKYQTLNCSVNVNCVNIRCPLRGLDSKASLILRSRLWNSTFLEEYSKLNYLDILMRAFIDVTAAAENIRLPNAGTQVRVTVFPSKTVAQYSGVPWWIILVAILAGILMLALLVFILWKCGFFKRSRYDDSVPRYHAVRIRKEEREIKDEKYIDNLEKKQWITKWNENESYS
Sequence of integrin α6β4 (P16144 28-1822 limits assumed, chain 2 of 2, further chain): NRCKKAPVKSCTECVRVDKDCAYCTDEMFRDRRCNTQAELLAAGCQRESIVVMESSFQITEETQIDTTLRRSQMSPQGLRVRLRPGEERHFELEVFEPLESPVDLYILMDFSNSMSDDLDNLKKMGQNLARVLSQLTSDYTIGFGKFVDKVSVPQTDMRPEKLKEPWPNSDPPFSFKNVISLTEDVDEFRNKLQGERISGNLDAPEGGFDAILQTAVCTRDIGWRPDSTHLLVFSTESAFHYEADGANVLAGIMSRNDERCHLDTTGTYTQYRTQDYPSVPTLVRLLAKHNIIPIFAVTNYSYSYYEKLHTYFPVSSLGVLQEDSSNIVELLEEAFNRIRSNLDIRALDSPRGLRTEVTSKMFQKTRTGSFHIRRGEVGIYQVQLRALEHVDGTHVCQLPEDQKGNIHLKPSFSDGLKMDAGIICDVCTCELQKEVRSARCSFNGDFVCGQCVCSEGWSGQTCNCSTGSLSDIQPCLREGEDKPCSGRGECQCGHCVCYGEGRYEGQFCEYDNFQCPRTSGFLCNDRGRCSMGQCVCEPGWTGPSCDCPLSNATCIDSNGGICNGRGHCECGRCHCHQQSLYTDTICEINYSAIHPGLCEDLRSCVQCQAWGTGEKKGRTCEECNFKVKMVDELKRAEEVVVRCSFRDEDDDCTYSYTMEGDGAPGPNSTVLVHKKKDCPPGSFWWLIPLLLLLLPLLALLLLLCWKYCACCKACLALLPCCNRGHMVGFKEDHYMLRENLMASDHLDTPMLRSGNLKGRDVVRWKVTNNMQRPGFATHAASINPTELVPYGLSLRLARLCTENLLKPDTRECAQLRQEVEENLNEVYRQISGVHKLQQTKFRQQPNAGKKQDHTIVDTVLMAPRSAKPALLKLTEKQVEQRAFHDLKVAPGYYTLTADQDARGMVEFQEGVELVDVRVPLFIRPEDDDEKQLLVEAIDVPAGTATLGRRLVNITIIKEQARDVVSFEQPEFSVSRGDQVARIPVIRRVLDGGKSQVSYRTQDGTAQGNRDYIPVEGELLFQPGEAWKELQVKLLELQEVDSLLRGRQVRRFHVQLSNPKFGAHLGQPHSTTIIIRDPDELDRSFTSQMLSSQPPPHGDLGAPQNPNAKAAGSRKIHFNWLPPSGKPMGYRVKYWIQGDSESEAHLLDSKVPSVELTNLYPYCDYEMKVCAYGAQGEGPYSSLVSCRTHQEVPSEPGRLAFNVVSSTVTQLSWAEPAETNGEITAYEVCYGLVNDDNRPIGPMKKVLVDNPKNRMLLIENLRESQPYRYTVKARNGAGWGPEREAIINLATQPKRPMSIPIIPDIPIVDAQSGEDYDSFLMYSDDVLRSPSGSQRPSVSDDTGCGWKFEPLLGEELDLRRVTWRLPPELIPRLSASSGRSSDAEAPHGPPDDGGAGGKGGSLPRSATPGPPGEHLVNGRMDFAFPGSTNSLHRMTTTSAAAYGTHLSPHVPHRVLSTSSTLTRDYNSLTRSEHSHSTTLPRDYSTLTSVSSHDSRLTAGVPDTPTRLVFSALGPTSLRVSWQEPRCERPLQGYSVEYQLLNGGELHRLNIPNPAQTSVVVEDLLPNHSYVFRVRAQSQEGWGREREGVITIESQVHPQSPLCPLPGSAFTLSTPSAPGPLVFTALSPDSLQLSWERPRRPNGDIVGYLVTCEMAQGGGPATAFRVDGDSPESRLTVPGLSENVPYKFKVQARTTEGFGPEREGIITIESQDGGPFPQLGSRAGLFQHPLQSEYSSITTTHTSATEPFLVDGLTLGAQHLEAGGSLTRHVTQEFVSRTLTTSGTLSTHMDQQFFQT
Sequence of integrin α3β1 (P26006 33-1051, chain 1 of 2): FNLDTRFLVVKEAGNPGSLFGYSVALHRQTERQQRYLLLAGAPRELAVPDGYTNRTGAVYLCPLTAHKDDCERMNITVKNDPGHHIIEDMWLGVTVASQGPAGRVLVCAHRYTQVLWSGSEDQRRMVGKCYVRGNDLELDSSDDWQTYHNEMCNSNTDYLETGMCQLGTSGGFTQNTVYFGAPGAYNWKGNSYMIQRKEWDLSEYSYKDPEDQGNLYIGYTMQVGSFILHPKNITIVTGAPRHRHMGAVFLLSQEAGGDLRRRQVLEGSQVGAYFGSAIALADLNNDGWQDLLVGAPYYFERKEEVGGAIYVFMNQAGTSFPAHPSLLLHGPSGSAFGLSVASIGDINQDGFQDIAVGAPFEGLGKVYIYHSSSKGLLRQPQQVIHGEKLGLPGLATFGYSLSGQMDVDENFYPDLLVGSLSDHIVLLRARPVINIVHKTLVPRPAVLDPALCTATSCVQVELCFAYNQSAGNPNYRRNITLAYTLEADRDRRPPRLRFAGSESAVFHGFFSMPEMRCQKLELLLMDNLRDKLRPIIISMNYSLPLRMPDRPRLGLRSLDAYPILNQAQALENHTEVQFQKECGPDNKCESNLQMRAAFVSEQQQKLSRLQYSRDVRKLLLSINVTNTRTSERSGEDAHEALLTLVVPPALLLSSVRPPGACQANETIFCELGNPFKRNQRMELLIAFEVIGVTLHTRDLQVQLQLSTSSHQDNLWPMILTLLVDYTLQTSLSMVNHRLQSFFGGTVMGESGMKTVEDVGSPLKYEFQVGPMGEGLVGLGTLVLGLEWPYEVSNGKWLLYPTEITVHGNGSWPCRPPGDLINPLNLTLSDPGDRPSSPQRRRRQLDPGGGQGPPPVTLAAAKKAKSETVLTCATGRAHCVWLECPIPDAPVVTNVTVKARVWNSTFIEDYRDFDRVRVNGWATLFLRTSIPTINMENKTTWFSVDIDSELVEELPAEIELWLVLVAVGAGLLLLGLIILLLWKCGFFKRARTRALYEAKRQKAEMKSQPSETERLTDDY
Sequence of integrin α3β1 (P05556 21-798, chain 2 of 2, further chain): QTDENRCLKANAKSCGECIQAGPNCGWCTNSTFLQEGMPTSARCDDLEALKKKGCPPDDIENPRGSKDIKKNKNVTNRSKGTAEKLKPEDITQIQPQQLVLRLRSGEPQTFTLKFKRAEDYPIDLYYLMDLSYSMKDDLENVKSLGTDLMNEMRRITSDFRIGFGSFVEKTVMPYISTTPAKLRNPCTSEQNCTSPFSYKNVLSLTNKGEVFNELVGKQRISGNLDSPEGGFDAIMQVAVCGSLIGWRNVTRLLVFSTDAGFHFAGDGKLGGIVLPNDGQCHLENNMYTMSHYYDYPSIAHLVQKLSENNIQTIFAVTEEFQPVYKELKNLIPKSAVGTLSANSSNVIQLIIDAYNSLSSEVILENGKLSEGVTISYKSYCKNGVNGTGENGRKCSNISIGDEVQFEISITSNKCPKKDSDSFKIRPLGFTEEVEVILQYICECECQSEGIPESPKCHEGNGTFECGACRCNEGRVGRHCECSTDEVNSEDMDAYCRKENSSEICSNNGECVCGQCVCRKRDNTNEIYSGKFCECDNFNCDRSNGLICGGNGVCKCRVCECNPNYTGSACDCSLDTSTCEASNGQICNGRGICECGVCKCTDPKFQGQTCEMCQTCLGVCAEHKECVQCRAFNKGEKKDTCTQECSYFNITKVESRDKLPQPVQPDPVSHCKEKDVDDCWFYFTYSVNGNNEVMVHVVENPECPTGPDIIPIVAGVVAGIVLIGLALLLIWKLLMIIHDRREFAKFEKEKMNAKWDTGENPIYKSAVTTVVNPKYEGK

On to anti-integrin β4 antibody ASC-3, for which the inhibition of adhesion of A549 cells on laminin 5 after 1 hour, ASC-3 in association with P1B5 in test [1] amounted to 70%.

Molecule anti-integrin α6 antibody NKI-Go3 gave an inhibition of adhesion of A549 cells on laminin 5 after 1 hour, NKI-Go3 in association with P1B5 in test [1] greater than 90%. In test [2], anti-integrin α3 antibody P1B5 displayed an inhibition of adhesion of A549 cells on laminin 5, 15 minutes greater than 90% and an inhibition of adhesion of A549 cells on laminin 5, 1 hour of 20%.

B1: TS151r antibody (antibody, mouse IgG1, V domains shown)
VH: QVQLQQPGSVVVRPGASVKLSCKASGYTFTSSWMHWAKQRPGQGLEWIGQIHPNSGNTNYNEKFKVKATLTIDTSSSTAYVDLNSLTSGDSAVYYCARGDDAYYSGLYAMDYWGQGTSVTVSS
VL: DIVLTQSPASLAVSLGQRATISCRASQSVSTSRYSYMHWYQQIQGQPPKLLIKYASNLESGVPARFSGSGSGTDFTLNIHPVEEEDTATYHCQHSWEIPYTFGGGTTLEIK
notes: Murine monoclonal from a hybridoma
For B1, in test [3], the binding result is given as “no binding”.

B2: TS151 antibody (antibody, mouse IgG1, V domains shown)
VH: QIQLVQSGPELKKPGETVKISCKASGYTFTDYSMHWVKQAPGKGLKWMGWINTETGEPTYTDDFKGRFAFSLETSANTAYLRINNLKNEDTATYFCARREYGNYYGMEYWGQGTSVTVSS
VL: DIVLTQSPASLAVSLGQRATISCRASQSVSTSTFSYIHWYQQKPGQPPKLLIKSASNLESGVPARFSGSGSGTDFTLTIHPVEEEDTATYFCQHSWEIPLTFGAGTKLELK
notes: Murine monoclonal from a hybridoma; also called anti-CD151 antibody TS151
For B2, the binding result in test [3] is listed as “no binding”.
